Laboratory results from the supplement of paper PMC5998384.

Key:
HeLa Kyoto [1] = assay: solubility change mitosis vs G1/S (difference of NP-40 vs SDS log2 ratios) (log2 ratio difference); higher = more soluble in mitosis
HeLa Kyoto [2] = assay: solubility in G1/S (NP-40 vs SDS abundance) (log2 ratio); higher = more soluble; conditions: cell cycle stage: G1/S
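Wherever solubility change mitosis vs G1/S (difference of NP-40 vs SDS log2 ratios) is given: synchronized HeLa Kyoto cells (double thymidine block for G1/S, nocodazole release for mitosis), protein amounts in NP-40 versus SDS lysates quantified by mass spectrometry, three biological replicates.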
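Wherever solubility in G1/S (NP-40 vs SDS abundance) is given: HeLa Kyoto cells arrested at G1/S by double thymidine block, proteins quantified by TMT10plex mass spectrometry in mild NP-40 versus SDS extracts, three biological replicates.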

| Sequence | solubility change mitosis (log2) (HeLa Kyoto [1]) | solubility in G1/S (log2) (HeLa Kyoto [2]) |
| --- | --- | --- |
| MSRLEAKKPSLCKSEPLTTERVRTTLSVLKRIVTSCYGPSGRLKQLHNGFGGYVCTTSQSSALLSHLLVTHPILKILTASIQNHVSSFSDCGLFTAILCCNLIENVQRLGLTPTTVIRLNKHLLSLCISYLKSETCGCRIPVDFSSTQILLCLVRSILTSKPACMLTRKETEHVSALILRAFLLTIPENAEGHIILGKSLIVPLKGQRVIDSTVLPGILIEMSEVQLMRLLPIKKSTALKVALFCTTLSGDTSDTGEGTVVVSYGVSLENAVLDQLLNLGRQLISDHVDLVLCQKVIHPSLKQFLNMHRIIAIDRIGVTLMEPLTKMTGTQPIGSLGSICPNSYGSVKDVCTAKFGSKHFFHLIPNEATICSLLLCNRNDTAWDELKLTCQTALHVLQLTLKEPWALLGGGCTETHLAAYIRHKTHNDPESILKDDECTQTELQLIAEAFCSALESVVGSLEHDGGEILTDMKYGHLWSVQADSPCVANWPDLLSQCGCGLYNSQEELNWSFLRSTRRPFVPQSCLPHEAVGSASNLTLDCLTAKLSGLQVAVETANLILDLSYVIEDKN [MKKS] | 0.46 | -0.925 |
| MSRSGAAAEKADSRQRPQMKVNEYKENQNIAYVSLRPAQTTVLIKTAKVYLAPFSLSNYQLDQLMCPKSLSEKNSNNEVACKKTKIKKTCRRIIPPKMKNTSSKAESTLQNSSSAVHTESNKLQPKRTADAMNLSVDVESSQDGDSDEDTTPSLDFSGLSPYERKRLKNISENADFFASLQLSESAARLREMIEKRQPPKSKRKKPKRENGIGCRRSMRLLKVDPSGVSLPAAPTPPTLVADETPLLPPGPLEMTSENQEDNNERFKGFLHTWAGMSKPSSKNTEKGLSSIKSYKANLNGMVISEDTVYKVTTGPIFSMALHPSETRTLVAVGAKFGQVGLCDLTQQPKEDGVYVFHPHSQPVSCLYFSPANPAHILSLSYDGTLRCGDFSRAIFEEVYRNERSSFSSFDFLAEDASTLIVGHWDGNMSLVDRRTPGTSYEKLTSSSMGKIRTVHVHPVHRQYFITAGLRDTHIYDARRLNSRRSQPLISLTEHTKSIASAYFSPLTGNRVVTTCADCNLRIFDSSCISSKIPLLTTIRHNTFTGRWLTRFQAMWDPKQEDCVIVGSMAHPRRVEIFHETGKRVHSFGGEYLVSVCSINAMHPTRYILAGGNSSGKIHVFMNEKSC [WDR76] | 1.15 | -1.61 |
| MSSKMVISEPGLNWDISPKNGLKTFFSRENYKDHSMAPSLKELRVLSNRRIGENLNASASSVENEPAVSSATQAKEKVKTTIGMVLLPKPRVPYPRFSRFSQREQRSYVDLLVKYAKIPANSKAVGINKNDYLQYLDMKKHVNEEVTEFLKFLQNSAKKCAQDYNMLSDDARLFTEKILRACIEQVKKYSEFYTLHEVTSLMGFFPFRVEMGLKLEKTLLALGSVKYVKTVFPSMPIKLQLSKDDIATIETSEQTAEAMHYDISKDPNAEKLVSRYHPQIALTSQSLFTLLNNHGPTYKEQWEIPVCIQVIPVAGSKPVKVIYINSPLPQKKMTMRERNQIFHEVPLKFMMSKNTSVPVSAVFMDKPEEFISEMDMSCEVNECRKIESLENLYLDFDDDVTELETFGVTTTKVSKSPSPASTSTVPNMTDAPTAPKAGTTTVAPSAPDISANSRSLSQILMEQLQKEKQLVTGMDGGPEECKNKDDQGFESCEKVSNSDKPLIQDSDLKTSDALQLENSQEIETSNKNDMTIDILHADGERPNVLENLDNSKEKTVGSEAAKTEDTVLCSSDTDEECLIIDTECKNNSDGKTAVVGSNLSSRPASPNSSSGQASVGNQTNTACSPEESCVLKKPIKRVYKKFDPVGEILKMQDELLKPISRKVPELPLMNLENSKQPSVSEQLSGPSDSSSWPKSGWPSAFQKPKGRLPYELQDYVEDTSEYLAPQEGNFVYKLFSLQDLLLLVRCSVQRIETRPRSKKRKKIRRQFPVYVLPKVEYQACYGVEALTESELCRLWTESLLHSNSSFYVGHIDAFTSKLFLLEEITSEELKEKLSALKISNLFNILQHILKKLSSLQEGSYLLSHAAEDSSLLIYKASDGKVTRTAYNLYKTHCGLPGVPSSLSVPWVPLDPSLLLPYHIHHGRIPCTFPPKSLDTTTQQKIGGTRMPTRSHRNPVSMETKSSCLPAQQVETEGVAPHKRKIT [ICE2] | 0.281 | -0.234 |
| MSSLPRRAKVQVQDVVLKDEFSSFSELSSASEEDDKEDSAWEPQKKVPRSRKQPPPKESKPKRMPRVKKNAPQISDGSEVVVVKEELNSSVAIADTALEDRKNKLDTVQTLKTAKTKQKCAAQPHTVRRTKKLKVEEETSKASNLEGESNSSETPSTSTVWGGTCKKEENDDDFTFGQSALKKIKTETYPQGQPVKFPANANSTKEEVEMNWDMVQVLSERTNIEPWVCANIIRLFNDDNTIPFIIRYRKELINNLDADSLREVQQTLEELRAVAKKVHSTIQKIKKEGKMSECLLKAMLNCKTFEELEHVSAPYKTGSKGTKAQRARQLGLEGAARALLEKPGELSLLSYIRPDVKGLSTLQDIEIGVQHILADMIAKDKDTLDFIRNLCQKRHVCIQSSLAKVSSKKVNEKDVDKFLLYQHFSCNIRNIHHHQILAINRGENLKVLTVKVNISDGVKDEFCRWCIQNRWRPRSFARPELMKILYNSLNDSFKRLIYPLLCREFRAKLTSDAEKESVMMFGRNLRQLLLTSPVPGRTLMGVDPGYKHGCKLAIISPTSQILHTDVVYLHCGQGFREAEKIKTLLLNFNCSTVVIGNGTACRETEAYFADLIMKNYFAPLDVVYCIVSEAGASIYSVSPEANKEMPGLDPNLRSAVSIARRVQDPLAELVKIEPKHIGVGMYQHDVSQTLLKATLDSVVEECVSFVGVDINICSEVLLRHIAGLNANRAKNIIEWREKNGPFINREQLKKVKGLGPKSFQQCAGFIRINQDYIRTFCSQQTETSGQIQGVAVTSSADVEVTNEKQGKKKSKTAVNVLLKPNPLDQTCIHPESYDIAMRFLSSIGGTLYEVGKPEMQQKINSFLEKEGMEKIAERLQTTVHTLQVIIDGLSQPESFDFRTDFDKPDFKRSIVCLEDLQIGTVLTGKVENATLFGIFVDIGVGKSGLIPIRNVTEAKLSKTKKRRSLGLGPGERVEVQVLNIDIPRSRITLDLIRVL [SRBD1] | 0.249 | -0.649 |
| MSTEADEGITFSVPPFAPSGFCTIPEGGICRRGGAAAVGEGEEHQLPPPPPGSFWNVESAAAPGIGCPAATSSSSATRGRGSSVGGGSRRTTVAYVINEASQGQLVVAESEALQSLREACETVGATLETLHFGKLDFGETTVLDRFYNADIAVVEMSDAFRQPSLFYHLGVRESFSMANNIILYCDTNSDSLQSLKEIICQKNTMCTGNYTFVPYMITPHNKVYCCDSSFMKGLTELMQPNFELLLGPICLPLVDRFIQLLKVAQASSSQYFRESILNDIRKARNLYTGKELAAELARIRQRVDNIEVLTADIVINLLLSYRDIQDYDSIVKLVETLEKLPTFDLASHHHVKFHYAFALNRRNLPGDRAKALDIMIPMVQSEGQVASDMYCLVGRIYKDMFLDSNFTDTESRDHGASWFKKAFESEPTLQSGINYAVLLLAAGHQFESSFELRKVGVKLSSLLGKKGNLEKLQSYWEVGFFLGASVLANDHMRVIQASEKLFKLKTPAWYLKSIVETILIYKHFVKLTTEQPVAKQELVDFWMDFLVEATKTDVTVVRFPVLILEPTKIYQPSYLSINNEVEEKTISIWHVLPDDKKGIHEWNFSASSVRGVSISKFEERCCFLYVLHNSDDFQIYFCTELHCKKFFEMVNTITEEKGRSTEEGDCESDLLEYDYEYDENGDRVVLGKGTYGIVYAGRDLSNQVRIAIKEIPERDSRYSQPLHEEIALHKHLKHKNIVQYLGSFSENGFIKIFMEQVPGGSLSALLRSKWGPLKDNEQTIGFYTKQILEGLKYLHDNQIVHRDIKGDNVLINTYSGVLKISDFGTSKRLAGINPCTETFTGTLQYMAPEIIDKGPRGYGKAADIWSLGCTIIEMATGKPPFYELGEPQAAMFKVGMFKVHPEIPESMSAEAKAFILKCFEPDPDKRACANDLLVDEFLKVSSKKKKTQPKLSALSAGSNEYLRSISLPVPVLVEDTSSSSEYGSVSPDTELKVDPFSFKTRAKSCGERDVKGIRTLFLGIPDENFEDHSAPPSPEEKDSGFFMLRKDSERRATLHRILTEDQDKIVRNLMESLAQGAEEPKLKWEHITTLIASLREFVRSTDRKIIATTLSKLKLELDFDSHGISQVQVVLFGFQDAVNKVLRNHNIKPHWMFALDSIIRKAVQTAITILVPELRPHFSLASESDTADQEDLDVEDDHEEQPSNQTVRRPQAVIEDAVATSGVSTLSSTVSHDSQSAHRSLNVQLGRMKIETNRLLEELVRKEKELQALLHRAIEEKDQEIKHLKLKSQPIEIPELPVFHLNSSGTNTEDSELTDWLRVNGADEDTISRFLAEDYTLLDVLYYVTRDDLKCLRLRGGMLCTLWKAIIDFRNKQT [MAP3K5] | 0.654 | -1.04 |
| MSVSARSAAAEERSVNSSTMVAQQKNLEGYVGFANLPNQVYRKSVKRGFEFTLMVVGESGLGKSTLINSLFLTDLYSPEYPGPSHRIKKTVQVEQSKVLIKEGGVQLLLTIVDTPGFGDAVDNSNCWQPVIDYIDSKFEDYLNAESRVNRRQMPDNRVQCCLYFIAPSGHGLKPLDIEFMKRLHEKVNIIPLIAKADTLTPEECQQFKKQIMKEIQEHKIKIYEFPETDDEEENKLVKKIKDRLPLAVVGSNTIIEVNGKRVRGRQYPWGVAEVENGEHCDFTILRNMLIRTHMQDLKDVTNNVHYENYRSRKLAAVTYNGVDNNKNKGQLTKSPLAQMEEERREHVAKMKKMEMEMEQVFEMKVKEKVQKLKDSEAELQRRHEQMKKNLEAQHKELEEKRRQFEDEKANWEAQQRILEQQNSSRTLEKNKKKGKIF [SEPT7] | 0.00373 | 0.245 |
| MSWLFPLTKSASSSAAGSPGGLTSLQQQKQRLIESLRNSHSSIAEIQKDVEYRLPFTINNLTININILLPPQFPQEKPVISVYPPIRHHLMDKQGVYVTSPLVNNFTMHSDLGKIIQSLLDEFWKNPPVLAPTSTAFPYLYSNPSGMSPYASQGFPFLPPYPPQEANRSITSLSVADTVSSSTTSHTTAKPAAPSFGVLSNLPLPIPTVDASIPTSQNGFGYKMPDVPDAFPELSELSVSQLTDMNEQEEVLLEQFLTLPQLKQIITDKDDLVKSIEELARKNLLLEPSLEAKRQTVLDKYELLTQMKSTFEKKMQRQHELSESCSASALQARLKVAAHEAEEESDNIAEDFLEGKMEIDDFLSSFMEKRTICHCRRAKEEKLQQAIAMHSQFHAPL [VPS37A] | -0.0301 | 0.656 |
| MSYVFVNDSSQTNVPLLQACIDGDFNYSKRLLESGFDPNIRDSRGRTGLHLAAARGNVDICQLLHKFGADLLATDYQGNTALHLCGHVDTIQFLVSNGLKIDICNHQGATPLVLAKRRGVNKDVIRLLESLEEQEVKGFNRGTHSKLETMQTAESESAMESHSLLNPNLQQGEGVLSSFRTTWQEFVEDLGFWRVLLLIFVIALLSLGIAYYVSGVLPFVENQPELVH [ANKRD46] | 0.136 | 0.237 |
| MTAVNVALIRDTKWLTLEVCREFQRGTCSRADADCKFAHPPRVCHVENGRVVACFDSLKGRCTRENCKYLHPPPHLKTQLEINGRNNLIQQKTAAAMFAQQMQLMLQNAQMSSLGSFPMTPSIPANPPMAFNPYIPHPGMGLVPAELVPNTPVLIPGNPPLAMPGAVGPKLMRSDKLEVCREFQRGNCTRGENDCRYAHPTDASMIEASDNTVTICMDYIKGRCSREKCKYFHPPAHLQARLKAAHHQMNHSAASAMALQPGTLQLIPKRSALEKPNGATPVFNPTVFHCQQALTNLQLPQPAFIPAGPILCMAPASNIVPMMHGATPTTVSAATTPATSVPFAAPTTGNQLKF [MBNL3] | 0.156 | 0.0798 |
